In the supplement of paper PMC10065799, “High-throughput profiling of sequence recognition by tyrosine kinases and SH2 domains using bacterial peptide display” (eLife, 2023):

Legend:
Grb2 SH2 = Grb2 SH2 (UniProt P62993); experiment: SH2 binding enrichment of the phosphorylated peptide, bacterial display (enrichment ratio); higher = better substrate or ligand; peptides without Tyr show the background
SHP2-C SH2 = experiment: as above
c-Src SH2 = experiment: as above
FGFR3 = FGFR3 (UniProt P22607); experiment: phosphorylation enrichment, bacterial display (enrichment ratio); higher = better substrate or ligand; peptides without Tyr show the background
MERTK = MERTK (UniProt Q12866); experiment: as above
EPHB2 = EPHB2 (UniProt P29323); experiment: as above
Fes = Fes (UniProt P07332); experiment: as above
Hck = Hck (UniProt P08631); experiment: as above
Jak2 = Jak2 (UniProt O60674); experiment: as above
Fyn = Fyn (UniProt P06241); experiment: as above
c-Src = experiment: as above
FGFR1 = FGFR1 (UniProt P11362); experiment: as above
AncSZ = experiment: as above
Fer (mouse) = experiment: as above
c-Abl (mouse) = experiment: as above
EPHB1 = EPHB1 (UniProt P54762); experiment: as above
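For SH2 binding enrichment of the phosphorylated peptide, bacterial display in this document: peptide library displayed on the E. coli surface as eCPX fusions, selected cells deep-sequenced, score is each peptide's frequency after selection divided by its frequency in the input.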
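For phosphorylation enrichment, bacterial display in this document: 11-residue human phosphosite peptides and single-mutation variants displayed on the E. coli surface, counted by deep sequencing, each peptide's frequency after selection divided by its frequency in the unselected input library; frequency after pTyr selection over input frequency; kinase dosed for 20-30% of maximal phosphorylation in three min.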

FGFR3, sequence (P22607 whole entry, looked up): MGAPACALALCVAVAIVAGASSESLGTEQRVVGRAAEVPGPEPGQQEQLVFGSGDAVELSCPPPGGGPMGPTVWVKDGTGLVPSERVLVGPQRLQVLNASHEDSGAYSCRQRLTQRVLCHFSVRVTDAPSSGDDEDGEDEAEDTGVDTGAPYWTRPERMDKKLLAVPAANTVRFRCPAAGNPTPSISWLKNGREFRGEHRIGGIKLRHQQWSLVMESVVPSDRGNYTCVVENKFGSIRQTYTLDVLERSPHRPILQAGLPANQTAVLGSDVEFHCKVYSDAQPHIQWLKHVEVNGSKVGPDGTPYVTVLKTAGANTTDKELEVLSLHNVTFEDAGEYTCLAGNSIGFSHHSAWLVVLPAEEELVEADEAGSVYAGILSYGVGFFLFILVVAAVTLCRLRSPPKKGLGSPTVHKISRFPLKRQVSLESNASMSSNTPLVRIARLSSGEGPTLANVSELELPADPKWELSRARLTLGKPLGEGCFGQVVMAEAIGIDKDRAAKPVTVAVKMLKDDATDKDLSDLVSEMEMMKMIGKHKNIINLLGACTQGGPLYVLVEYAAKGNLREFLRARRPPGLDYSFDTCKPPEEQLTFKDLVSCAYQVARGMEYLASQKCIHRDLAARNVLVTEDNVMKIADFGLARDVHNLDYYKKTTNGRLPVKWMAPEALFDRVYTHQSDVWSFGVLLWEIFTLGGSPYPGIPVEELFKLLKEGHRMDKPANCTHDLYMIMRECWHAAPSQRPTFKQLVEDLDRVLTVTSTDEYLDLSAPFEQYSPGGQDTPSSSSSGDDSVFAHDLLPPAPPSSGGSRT
Hck, sequence (P08631 whole entry, looked up): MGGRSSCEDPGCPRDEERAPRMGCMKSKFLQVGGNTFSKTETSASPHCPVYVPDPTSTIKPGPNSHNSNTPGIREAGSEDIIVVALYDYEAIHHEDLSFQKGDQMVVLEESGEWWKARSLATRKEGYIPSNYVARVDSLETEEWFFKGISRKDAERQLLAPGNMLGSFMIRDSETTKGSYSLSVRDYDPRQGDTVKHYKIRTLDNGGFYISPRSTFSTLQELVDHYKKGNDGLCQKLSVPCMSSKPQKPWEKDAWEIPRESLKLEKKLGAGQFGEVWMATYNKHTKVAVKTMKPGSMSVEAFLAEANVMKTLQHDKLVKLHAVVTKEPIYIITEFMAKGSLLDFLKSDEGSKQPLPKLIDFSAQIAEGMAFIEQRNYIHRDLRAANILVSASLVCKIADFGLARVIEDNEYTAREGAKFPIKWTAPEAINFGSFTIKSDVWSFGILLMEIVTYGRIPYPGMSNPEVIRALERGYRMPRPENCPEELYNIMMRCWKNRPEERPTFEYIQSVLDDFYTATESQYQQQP
EPHB1, sequence (P54762 whole entry, looked up, the tested form may be a part): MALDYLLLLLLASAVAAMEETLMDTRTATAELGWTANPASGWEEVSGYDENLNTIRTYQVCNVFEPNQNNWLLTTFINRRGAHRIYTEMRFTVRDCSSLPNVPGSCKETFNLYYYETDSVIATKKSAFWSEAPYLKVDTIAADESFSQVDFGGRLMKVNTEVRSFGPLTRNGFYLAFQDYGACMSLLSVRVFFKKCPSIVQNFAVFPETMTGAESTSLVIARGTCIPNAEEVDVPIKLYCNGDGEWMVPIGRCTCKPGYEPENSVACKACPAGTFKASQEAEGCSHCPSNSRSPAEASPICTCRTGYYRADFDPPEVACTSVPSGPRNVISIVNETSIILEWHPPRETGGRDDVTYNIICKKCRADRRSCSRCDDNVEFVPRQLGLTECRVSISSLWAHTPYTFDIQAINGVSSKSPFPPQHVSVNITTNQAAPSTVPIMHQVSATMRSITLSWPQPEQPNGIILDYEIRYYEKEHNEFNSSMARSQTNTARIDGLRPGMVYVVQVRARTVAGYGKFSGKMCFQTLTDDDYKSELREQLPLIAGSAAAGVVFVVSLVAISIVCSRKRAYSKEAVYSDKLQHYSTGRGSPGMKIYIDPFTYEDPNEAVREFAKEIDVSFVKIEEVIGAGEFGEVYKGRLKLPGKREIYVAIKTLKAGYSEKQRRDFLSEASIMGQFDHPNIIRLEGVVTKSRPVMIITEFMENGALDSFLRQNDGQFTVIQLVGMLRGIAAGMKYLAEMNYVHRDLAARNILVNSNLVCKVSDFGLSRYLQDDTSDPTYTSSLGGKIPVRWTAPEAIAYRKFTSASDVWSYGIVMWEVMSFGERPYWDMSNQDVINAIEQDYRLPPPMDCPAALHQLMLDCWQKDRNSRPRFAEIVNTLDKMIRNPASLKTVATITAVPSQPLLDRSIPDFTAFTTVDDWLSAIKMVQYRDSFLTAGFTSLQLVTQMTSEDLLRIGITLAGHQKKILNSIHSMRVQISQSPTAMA
Fes, sequence (P07332 whole entry, looked up): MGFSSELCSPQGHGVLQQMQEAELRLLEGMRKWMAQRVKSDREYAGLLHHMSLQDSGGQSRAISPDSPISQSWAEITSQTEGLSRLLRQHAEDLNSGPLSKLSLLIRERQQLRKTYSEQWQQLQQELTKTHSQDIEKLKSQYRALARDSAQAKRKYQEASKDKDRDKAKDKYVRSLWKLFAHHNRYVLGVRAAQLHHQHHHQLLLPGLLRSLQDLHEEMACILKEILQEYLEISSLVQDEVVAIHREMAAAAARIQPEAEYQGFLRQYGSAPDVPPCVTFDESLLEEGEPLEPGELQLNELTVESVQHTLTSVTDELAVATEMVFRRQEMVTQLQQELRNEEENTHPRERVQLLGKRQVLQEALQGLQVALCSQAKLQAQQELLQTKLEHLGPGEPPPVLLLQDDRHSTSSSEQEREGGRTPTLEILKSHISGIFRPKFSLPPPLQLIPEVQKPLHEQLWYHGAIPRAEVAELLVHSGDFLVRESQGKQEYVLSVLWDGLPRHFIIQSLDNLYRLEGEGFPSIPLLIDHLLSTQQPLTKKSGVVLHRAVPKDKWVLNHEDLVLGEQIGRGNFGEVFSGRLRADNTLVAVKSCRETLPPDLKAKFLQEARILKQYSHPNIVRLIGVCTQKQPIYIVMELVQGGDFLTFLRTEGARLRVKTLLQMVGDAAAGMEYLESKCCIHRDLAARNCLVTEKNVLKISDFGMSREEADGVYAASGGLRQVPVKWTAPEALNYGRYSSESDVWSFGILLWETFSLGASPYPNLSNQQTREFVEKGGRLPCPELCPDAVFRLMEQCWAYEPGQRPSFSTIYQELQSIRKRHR
EPHB2, sequence (P29323 whole entry, looked up): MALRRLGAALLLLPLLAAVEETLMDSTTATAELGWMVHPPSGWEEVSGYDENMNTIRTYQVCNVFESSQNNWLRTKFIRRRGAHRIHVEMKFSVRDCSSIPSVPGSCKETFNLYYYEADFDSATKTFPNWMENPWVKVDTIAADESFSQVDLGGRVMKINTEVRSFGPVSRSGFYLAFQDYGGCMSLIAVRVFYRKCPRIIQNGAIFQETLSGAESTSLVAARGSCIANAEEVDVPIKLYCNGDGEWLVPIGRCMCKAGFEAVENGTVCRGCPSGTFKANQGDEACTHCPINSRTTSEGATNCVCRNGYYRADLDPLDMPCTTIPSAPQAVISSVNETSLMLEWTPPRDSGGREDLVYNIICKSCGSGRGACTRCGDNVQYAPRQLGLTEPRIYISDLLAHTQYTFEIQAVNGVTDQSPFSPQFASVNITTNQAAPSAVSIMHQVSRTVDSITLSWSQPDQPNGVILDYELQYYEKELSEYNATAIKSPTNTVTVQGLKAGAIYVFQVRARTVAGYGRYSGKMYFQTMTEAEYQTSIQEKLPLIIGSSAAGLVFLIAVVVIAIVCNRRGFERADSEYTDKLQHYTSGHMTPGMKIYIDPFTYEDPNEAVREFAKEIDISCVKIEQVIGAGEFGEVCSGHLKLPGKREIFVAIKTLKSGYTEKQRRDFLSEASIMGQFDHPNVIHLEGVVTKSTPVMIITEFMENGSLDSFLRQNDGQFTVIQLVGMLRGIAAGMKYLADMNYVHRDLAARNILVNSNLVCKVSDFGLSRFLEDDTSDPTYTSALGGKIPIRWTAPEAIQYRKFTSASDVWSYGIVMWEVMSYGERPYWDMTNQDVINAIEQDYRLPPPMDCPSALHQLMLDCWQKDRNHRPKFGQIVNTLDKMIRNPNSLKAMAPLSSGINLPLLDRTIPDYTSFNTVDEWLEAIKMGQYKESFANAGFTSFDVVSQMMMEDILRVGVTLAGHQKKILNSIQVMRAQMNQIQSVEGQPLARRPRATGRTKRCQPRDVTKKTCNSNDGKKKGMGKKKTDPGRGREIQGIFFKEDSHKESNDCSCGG
Fyn, sequence (P06241 whole entry, looked up): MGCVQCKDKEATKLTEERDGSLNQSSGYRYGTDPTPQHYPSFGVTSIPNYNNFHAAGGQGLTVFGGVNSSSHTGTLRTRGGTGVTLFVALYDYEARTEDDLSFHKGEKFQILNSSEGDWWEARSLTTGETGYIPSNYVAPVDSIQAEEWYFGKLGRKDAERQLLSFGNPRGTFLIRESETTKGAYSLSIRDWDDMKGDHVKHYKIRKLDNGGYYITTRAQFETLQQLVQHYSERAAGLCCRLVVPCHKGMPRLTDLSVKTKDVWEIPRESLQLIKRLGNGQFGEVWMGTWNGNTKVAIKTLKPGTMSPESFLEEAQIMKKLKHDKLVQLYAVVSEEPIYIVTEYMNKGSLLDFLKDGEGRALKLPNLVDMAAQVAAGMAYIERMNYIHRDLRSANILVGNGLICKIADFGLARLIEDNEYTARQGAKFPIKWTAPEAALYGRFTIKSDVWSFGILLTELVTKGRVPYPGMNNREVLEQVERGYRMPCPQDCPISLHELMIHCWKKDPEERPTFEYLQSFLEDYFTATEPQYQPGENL

SH2 binding enrichment (Grb2 SH2)	SH2 binding enrichment (SHP2-C SH2)	SH2 binding enrichment (c-Src SH2)	Sequence	phosphorylation enrichment (FGFR3)	phosphorylation enrichment (MERTK)	phosphorylation enrichment (EPHB2)	phosphorylation enrichment (Fes)	phosphorylation enrichment (Hck)	phosphorylation enrichment (Jak2)	phosphorylation enrichment (Fyn)	phosphorylation enrichment (c-Src)	phosphorylation enrichment (FGFR1)	phosphorylation enrichment (AncSZ)	phosphorylation enrichment (Fer (mouse))	phosphorylation enrichment (c-Abl (mouse))	phosphorylation enrichment (EPHB1)
1.09	0.778	0.498	QKMLDYLKEKK [RYR2_Y3780]	0.673	0.398	0.345	1.1	0.491	0.579	0.542	0.513	0.553	0.9	0.442	0.533	0.401
0.853	1.21	0.369	QKNVSYVSRVS [TASOR_Y1043_T1046R]	0.894	0.537	0.564	0.739	0.477	0.69	0.438	0.457	0.782	1.2	0.764	0.547	0.683
0.766	1.03	1.34	QLAPQYTYTQG [FLNA_Y1761_A1764T]	0.768	1.17	0.413	0.766	0.533	0.611	0.422	0.526	0.411	0.828	0.517	0.36	0.436
0.861	0.784	0.541	QLCVSYPGGYT [PROS1_Y259_N258S]	0.665	0.402	0.719	0.888	0.416	0.862	0.597	0.4	0.592	1.03	0.591	0.683	0.588
1.28	0.952	0.972	QLFGAYLRIHA [BSCL2_Y213_YF]	2.28	0.599	0.915	2.12	1.02	1.37	0.784	0.559	0.928	1.49	0.837	0.744	1.17
0.893	0.76	0.42	QMQAAYQKAVA [HBD_Y131_V134A]	0.508	0.368	0.292	0.798	0.449	0.635	0.47	0.307	0.652	0.576	0.405	0.451	0.583
1.02	1.21	0.654	QMVGKYASSYM [AVPR2_Y124_M123K]	0.452	0.475	0.401	0.736	0.379	0.717	0.529	0.459	0.29	0.626	0.266	0.786	0.336
0.831	0.774	0.571	QMVRMYASSFM [AVPR2_Y124_G122R_YF]	0.677	0.544	0.552	0.843	0.425	0.769	0.605	0.328	0.605	1.26	0.482	0.745	0.59
0.897	0.625	0.687	QNAGDYYDLYG [PTPN11_Y62_T59A]	20.3	3	13.6	1.25	5.32	3.1	5.41	4.65	19.5	4.8	1.56	1.04	15.5
0.924	0.564	0.558	QNTADYFDLFG [PTPN11_Y62_G60A_YF]	16.9	0.691	13.8	1.53	0.722	6.89	1.32	0.693	17.9	5.82	0.951	1.13	15.8
0.734	0.791	0.516	QPGTDYKIYRY [FN1_Y1970_L1974R]	0.882	0.499	0.555	0.866	0.468	0.968	0.468	0.527	0.583	1.02	0.618	0.742	0.383
0.798	0.55	0.452	QQLDEYQELLD [LMNA_Y359]	1.18	0.6	0.757	1.57	0.684	1.3	0.669	0.726	0.615	1.63	0.598	1.01	0.776
0.804	0.513	1.59	QRPGLYDRPGA [HNRNPH2_Y210_P209L]	0.773	0.852	0.512	0.943	1.22	0.829	0.741	0.806	0.651	0.737	0.802	1.2	0.933
1.05	0.779	0.774	QRRFLYFFSFL [PTEN_Y176_V175L_YF]	1.16	0.886	0.817	1.85	0.68	1.5	0.795	0.567	0.978	1.61	0.862	1.09	0.761
0.768	0.635	0.521	QRTMKYTTATE [MCCC1_Y41_G46E]	1.11	0.862	1.43	1.23	0.966	0.975	0.781	0.706	0.683	1.43	0.607	0.496	0.791
0.873	0.526	1.32	QSQQAYQEAFE [YWHAZ_Y149]	0.693	0.541	0.47	1.22	0.48	1.28	0.397	0.578	0.488	1.3	0.597	1.71	0.355
0.826	0.587	0.5	QVMDGYPIPIG [MMP14_Y353_M355I]	0.572	0.482	0.755	0.715	0.566	0.554	0.592	0.3	0.406	0.686	0.56	0.46	0.596

SH2 binding enrichment (Grb2 SH2)	SH2 binding enrichment (SHP2-C SH2)	SH2 binding enrichment (c-Src SH2)	Sequence	phosphorylation enrichment (FGFR3)	phosphorylation enrichment (MERTK)	phosphorylation enrichment (EPHB2)	phosphorylation enrichment (Fes)	phosphorylation enrichment (Hck)	phosphorylation enrichment (Jak2)	phosphorylation enrichment (Fyn)	phosphorylation enrichment (c-Src)	phosphorylation enrichment (FGFR1)	phosphorylation enrichment (AncSZ)	phosphorylation enrichment (Fer (mouse))	phosphorylation enrichment (c-Abl (mouse))	phosphorylation enrichment (EPHB1)
0.978	0.679	0.59	QYNIQYSSSAA [ERBB2IP_Y981]	0.648	0.452	0.583	0.964	0.47	0.68	0.702	0.749	0.693	0.913	0.606	0.408	0.335
0.869	0.765	0.452	RAEIVYKSPVV [MAPT_Y711_G706R]	0.857	0.415	0.507	1.46	0.674	0.779	0.482	0.723	0.783	0.995	0.363	16.4	0.663
0.989	0.95	0.886	RAIGFYSATSK [FAM120A_Y328_YF]	0.805	1.03	0.81	1.03	0.774	0.889	0.685	0.59	0.545	1.51	0.911	1.26	0.46
1.22	0.917	0.768	RALLNYIASKY [GSTA3_Y74_I71L]	0.798	0.509	0.521	0.959	0.553	0.8	0.678	0.381	0.343	0.611	0.47	0.578	0.551
0.876	0.844	0.491	RASSSYRETPS [SORBS1_Y79]	0.68	0.644	0.337	0.659	0.502	1.49	0.655	0.775	0.611	0.681	0.513	0.757	0.361
0.92	0.97	0.507	RDIHDYIKHLG [UNC13C_Y308]	0.474	0.46	0.985	0.696	0.519	0.614	0.576	0.487	0.449	0.9	0.582	0.373	0.597
0.824	0.691	0.485	RDSQIYAVDYE [MRPS34_Y34_L33I]	1.37	4.3	1.94	1.56	4.23	0.977	7.43	4.24	1.21	1.86	1.89	0.684	2.44
2.37	0.541	0.621	RDVEQYVNNVN [PCDH19_Y1097_L1094V]	0.701	0.522	0.594	0.93	0.645	0.855	0.577	0.398	0.544	0.928	0.454	1.02	0.545
0.923	0.589	0.465	REGKIYEFNQV [ZNF665_Y162_H157R_YF]	0.886	2.64	0.795	0.758	1.24	0.432	4.78	2.08	0.46	0.795	14.3	0.718	0.356
0.84	0.611	1.56	REGKIYEYNQV [ZNF665_Y162_H157R]	0.898	3.19	0.929	0.788	1.12	0.494	1.41	1.19	0.707	0.799	15.9	1.07	0.716
0.724	0.564	0.374	RFGRKYKKVRF [F8_Y442_I438F]	0.651	1.04	0.551	0.841	0.674	0.884	0.82	0.988	0.653	0.708	0.619	0.806	0.572
1.54	1.09	1.46	RFLERYIFNRE [HLA-DPB1_Y57_YF]	0.543	0.409	0.363	0.914	0.44	0.748	0.311	0.432	0.329	0.786	0.356	0.627	0.324
1.03	0.87	0.981	RFLRGYEQDAY [HLA-A_Y137_R138E]	0.57	0.304	0.448	0.969	0.42	0.807	0.525	0.407	0.6	0.71	0.289	0.478	0.358
0.631	0.713	0.43	RFLRGYQQDAY [HLA-A_Y137_R138Q]	0.633	0.665	0.535	0.81	0.404	0.803	0.349	0.715	0.548	0.894	0.64	0.843	0.519
0.636	0.284	0.495	RFLRGYRQHAF [HLA-A_Y137_D140H_YF]	0.701	0.706	0.599	1.34	0.581	0.933	0.648	0.805	0.564	0.606	0.598	1.02	0.64
1.45	1.43	0.552	RFVFFYSFLLK [PTEN_Y178_YF]	0.9	0.539	0.502	1.65	0.509	1.64	0.623	1.05	0.731	1.44	0.612	1.45	0.748
